Biological target: T1, human DNA polymerase α catalytic subunit p180 with the N-terminus (residues 1–334) deleted (human, UniProt P09884 335-1462)
T1 sequence (looked up): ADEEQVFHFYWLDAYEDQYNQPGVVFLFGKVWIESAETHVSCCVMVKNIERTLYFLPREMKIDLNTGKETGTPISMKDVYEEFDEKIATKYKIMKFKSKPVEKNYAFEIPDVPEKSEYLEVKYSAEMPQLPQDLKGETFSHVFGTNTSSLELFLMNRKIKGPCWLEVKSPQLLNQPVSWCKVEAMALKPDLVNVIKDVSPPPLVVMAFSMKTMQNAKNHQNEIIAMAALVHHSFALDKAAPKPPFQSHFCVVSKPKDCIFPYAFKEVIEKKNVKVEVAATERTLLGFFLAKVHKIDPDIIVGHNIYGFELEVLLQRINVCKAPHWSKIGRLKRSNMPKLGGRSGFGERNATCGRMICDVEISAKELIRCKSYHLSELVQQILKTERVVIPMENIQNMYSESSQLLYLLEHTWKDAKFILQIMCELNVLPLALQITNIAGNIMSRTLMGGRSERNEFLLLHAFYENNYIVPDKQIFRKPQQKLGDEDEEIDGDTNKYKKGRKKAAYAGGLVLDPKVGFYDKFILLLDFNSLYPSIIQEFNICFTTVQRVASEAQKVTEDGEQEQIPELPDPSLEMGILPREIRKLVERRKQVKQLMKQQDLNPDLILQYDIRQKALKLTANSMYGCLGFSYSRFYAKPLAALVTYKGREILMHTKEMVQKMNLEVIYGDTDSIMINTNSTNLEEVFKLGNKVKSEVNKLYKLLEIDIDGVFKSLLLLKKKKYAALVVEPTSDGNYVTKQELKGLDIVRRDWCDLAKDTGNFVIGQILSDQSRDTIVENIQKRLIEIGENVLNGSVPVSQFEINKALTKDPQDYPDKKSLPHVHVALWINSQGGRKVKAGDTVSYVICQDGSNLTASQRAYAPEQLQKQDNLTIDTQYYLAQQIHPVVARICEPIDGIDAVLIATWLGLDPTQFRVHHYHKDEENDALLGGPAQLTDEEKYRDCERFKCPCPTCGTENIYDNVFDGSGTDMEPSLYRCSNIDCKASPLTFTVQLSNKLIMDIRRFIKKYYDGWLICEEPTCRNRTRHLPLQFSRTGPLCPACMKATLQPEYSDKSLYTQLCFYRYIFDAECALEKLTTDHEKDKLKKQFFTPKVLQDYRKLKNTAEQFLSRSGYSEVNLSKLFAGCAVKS
Assay: cryo-EM structure

B1: human DNA polymerase α accessory subunit p70 (natural protein, UniProt Q14181 1-598, looked up)
chain: MSASAQQLAEELQIFGLDCEEALIEKLVELCVQYGQNEEGMVGELIAFCTSTHKVGLTSEILNSFEHEFLSKRLSKARHSTCKDSGHAGARDIVSIQELIEVEEEEEILLNSYTTPSKGSQKRAISTPETPLTKRSVSTRSPHQLLSPSSFSPSATPSQKYNSRSNRGEVVTSFGLAQGVSWSGRGGAGNISLKVLGCPEALTGSYKSMFQKLPDIREVLTCKIEELGSELKEHYKIEAFTPLLAPAQEPVTLLGQIGCDSNGKLNNKSVILEGDREHSSGAQIPVDLSELKEYSLFPGQVVIMEGINTTGRKLVATKLYEGVPLPFYQPTEEDADFEQSMVLVACGPYTTSDSITYDPLLDLIAVINHDRPDVCILFGPFLDAKHEQVENCLLTSPFEDIFKQCLRTIIEGTRSSGSHLVFVPSLRDVHHEPVYPQPPFSYSDLSREDKKQVQFVSEPCSLSINGVIFGLTSTDLLFHLGAEEISSSSGTSDRFSRILKHILTQRSYYPLYPPQEDMAIDYESFYVYAQLPVTPDVLIIPSELRYFVKDVLGCVCVNPGRLTKGQVGGTFARLYLRRPAADGAERQSPCIAVQVVRI
binding result: binds
